Here are results for five substances from patent publication US20050287522A1.

The target in assay [1] is tEGFR-ω fusion (extracellular and transmembrane regions of the EGF receptor fused to the ω fragment). In words: cell-based or functional assay.
Assay [2] deals with ω-NLS (ω fragment fused to a triplet SV40 nuclear localization signal). In words: cell-based or functional assay.
ω-NLS (ω fragment fused to a triplet SV40 nuclear localization signal), sequence (P00722 other isoform, or with tags, fused parts or gaps): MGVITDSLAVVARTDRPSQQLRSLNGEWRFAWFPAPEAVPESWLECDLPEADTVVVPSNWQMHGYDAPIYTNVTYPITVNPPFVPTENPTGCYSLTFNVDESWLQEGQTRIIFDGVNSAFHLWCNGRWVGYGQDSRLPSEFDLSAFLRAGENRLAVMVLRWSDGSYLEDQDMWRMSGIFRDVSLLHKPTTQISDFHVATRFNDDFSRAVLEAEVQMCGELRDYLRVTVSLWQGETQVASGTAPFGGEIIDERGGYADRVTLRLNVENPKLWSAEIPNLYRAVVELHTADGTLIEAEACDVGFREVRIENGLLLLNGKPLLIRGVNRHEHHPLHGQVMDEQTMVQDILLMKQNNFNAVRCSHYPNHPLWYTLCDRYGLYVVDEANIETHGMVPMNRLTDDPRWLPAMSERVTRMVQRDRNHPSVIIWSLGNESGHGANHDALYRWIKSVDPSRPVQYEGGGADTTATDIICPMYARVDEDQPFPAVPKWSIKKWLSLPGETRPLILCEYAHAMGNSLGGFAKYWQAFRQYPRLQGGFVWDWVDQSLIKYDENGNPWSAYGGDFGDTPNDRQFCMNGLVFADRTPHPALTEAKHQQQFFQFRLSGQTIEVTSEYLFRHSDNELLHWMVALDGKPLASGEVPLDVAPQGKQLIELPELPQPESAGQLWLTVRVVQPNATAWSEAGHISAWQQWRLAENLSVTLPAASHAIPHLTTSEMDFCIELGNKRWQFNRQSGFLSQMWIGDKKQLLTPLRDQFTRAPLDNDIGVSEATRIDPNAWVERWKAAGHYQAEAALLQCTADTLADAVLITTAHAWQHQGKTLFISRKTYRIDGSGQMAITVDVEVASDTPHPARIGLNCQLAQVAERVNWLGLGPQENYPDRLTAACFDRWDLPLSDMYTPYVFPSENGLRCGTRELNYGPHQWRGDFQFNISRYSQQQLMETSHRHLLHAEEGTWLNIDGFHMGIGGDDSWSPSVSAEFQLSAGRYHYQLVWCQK

tEGFR-ω fusion (extracellular and transmembrane regions of the EGF receptor fused to the ω fragment), sequence (P00722 other isoform, or with tags, fused parts or gaps): as above

“C1A domain of PKCγ fused to GFP-α (wild type α peptide) (from UniProt P42212 1-238)” had an increase in β-galactosidase activity on PMA (NIH 3T3 cells, membrane translocation assay) in assay [1] below 10 % increase.

Take “C1A domain of PKCγ fused to the GFP-α H31R point mutant (from UniProt P42212 1-238)”: the fold induction of β-galactosidase activity on PMA (NIH 3T3 cells, membrane translocation assay) (fold induction) in assay [1] was 7.

In assay [1], “NES-GFP-α-NLS protein (MEK nuclear export signal, GFP, α peptide, triplet SV40 NLS) (from UniProt P42212 1-238)” registered a β-galactosidase activity after leptomycin B (loss of signal assay) (fold decrease) of 5. Moreover, in assay [2], the β-galactosidase activity after leptomycin B for 2 hours (gain of signal assay, luminescent substrate) (fold increase) came to 3.5.

In assay [1], “PH domain of AKT fused to the GFP-α chimera (from UniProt P42212 1-238)” gave an increase in β-galactosidase activity on PDGF, luminescent assay in 3T3 cells of 5 fold; an increase in β-galactosidase activity on insulin, luminescent assay in 3T3 cells of 2.5 fold; an increase in β-galactosidase activity on osmotic shock (sorbitol), luminescent assay in 3T3 cells of 8 fold.

On to “glucocorticoid receptor fused to the amino-terminus of the GFP-α fusion (from UniProt P42212 1-238)”, for which, in assay [1], the change in β-galactosidase activity with dexamethasone, DDAO substrate, flow cytometry of live cells lay in the range of 5 to 10 fold change; the difference in β-galactosidase activity at 30 min of dexamethasone (loss of signal assay) amounted to 25%; the β-galactosidase activity after 1 µM dexamethasone for 3 hours (loss of signal assay) came to 5 fold. In assay [2], this substance registered a change in β-galactosidase activity with dexamethasone, DDAO substrate, flow cytometry of live cells of 5 to 10 fold change; a difference in β-galactosidase activity at 30 min of dexamethasone (gain of signal assay) of 100%; a β-galactosidase activity after 1 µM dexamethasone for 3 hours (gain of signal assay) (fold induction) of 3.5.
